Data reported in article PMC6954422.

Legend:
[1] = molecular target: MITF(wt) protein fragment 217–296 (Mus musculus); assay: SEC
[2] = molecular target: stammer-less MITF(Δ) protein fragment 217–296 (Mus musculus); assay: SEC

| stoichiometry N [1] | stoichiometry N [2] | Substance |
| --- | --- | --- |
| 2 | – | MITF(wt) protein fragment 217–296 (domain or fragment) |
| – | 2 | stammer-less MITF(Δ) protein fragment 217–296 (domain or fragment) |
